Values of other authors in article PMC2888693.
pKd: −log10 of the molar value.

Target: Tube DD (Drosophila melanogaster) (UniProt P22812)
Sequence of UniProt P22812 (P22812 27-152): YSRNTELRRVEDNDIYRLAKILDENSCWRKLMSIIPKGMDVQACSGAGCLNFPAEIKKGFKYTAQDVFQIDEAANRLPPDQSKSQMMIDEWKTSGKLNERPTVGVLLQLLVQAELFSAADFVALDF

pKd: 6.30
Substance: Pelle DD (from UniProt Q05652)
